Publication PMC13541614 (2026)

Molecular target: H5N1 influenza hemagglutinin (HA) of A/Vietnam/1203/2004, native (wild type) (Influenza A virus A/Vietnam/1203/2004 …, biotin on the AviTag (expressed in the presence of BirA))
Experiment: BLI

| Binder | Kd [pM] |
| --- | --- |
| CR6261 (broadly neutralizing antibody targeting the stem region of HA), IgG (antibody, V domains shown) VH: EVQLVESGAEVKKPGSSVKVSCKASGGPFRSYAISWVRQAPGQGPEWMGGIIPIFGTTKYAPKFQGRVTITADDFAGTVYMELSSLRSEDTAMYYCAKHMGYQVRETMDVWGKGTTVTVSS VL: QSVLTQPPSVSAAPGQKVTISCSGSSSNIGNDYVSWYQQLPGTAPKLLIYDNNKRPSGIPDRFSGSKSGTSATLGITGLQTGDEANYYCATWDRRPTAYVVFGGGTKLTVL | 460 |
| 13D4 (broadly neutralizing antibody targeting the head region of HA), IgG (antibody, V domains shown) VH: QVQLQQSGAELMKPGASVKISCKATGYTFSGHWIEWVKQRPGHGLEWIGEILPGSGNIHYNEKFKGKATFAADTSSNTAYMQLSSLTSEDSAVYYCARLGTTAVERDWYFDVWGAGTTVTVSL VL: DIVMTQSQKFMSASVGDRVSVTCKASQNVGTHLAWYQQKPGQSPKALIYSASYRYSGVPDRFTGSGSGTDFTLTISNVQSGDLADYFCQQYNNFPLTFGAGTKLEIK | 640 |
